Reference: patent US20170129940A1 (INSTITUTE FOR RESEARCH IN BIOMEDICINE, published 2017)

B1: 7H3 (antibody, V domains shown)
VH: QVQLVQSGAEVKNPGASVKVSCKASGYTFTDYYIHWVRQAPGQGLEWMGWFNPNSGGTNFVQNFQGRVTMTRDTSISTAYMELSRLRSDDTAMYYCAKDSAKTASAYYGLNFFYYGMDVWGQGTTVTVSS
VL: QSVLSQPPSASGTPGQRVTISCSGSSSNIGKNYVYWYQQVPGTAPKLLMFKNNQRPSGVPDRFSGSKSGTSASLAISGLRSEDEADYYCSAWDGSLSRPLFGGGTKVTVL
notes: human IgG; also called 7H3-biotin
B2: 10P3 (antibody, V domains shown)
VH: EVQLVESGGGLVRPGGSLRLSCAASGFTFHNYRMNWVRQAPGKGLEWVANIKQDGSEKSYVDSVRGRFTTSRDNSKNSLYLQINSLRAEDTAVYYCARGEGYTYGVVYSYSAMDVWGQGTTVIVSS
VL: SYELTQPPSVSVSPGQTARITCSGNVLPNQYASWYQQKPGQAPVLVIYKDTERPSGIPGRFSGSSSGTTVTLTISGVQAEDEADYYCQSADSSGADYVFGTGTKVTVL
B3: 10F7 (antibody, V domains shown)
VH: EVQLVESGGGLVQPGRSLRLSCTASGFTFGDYAMSWFRQAPGKGLEWVGFIRSKAYGGTTEYAASVKGRFTISRDDSKSIAYLQMNSLKTEDTAVYYCTRASSLLWLLNPQPNFDYWGQGTLVTVSS
VL: SYVLTQPPSVSVAPGQTARITCGGNNIGSNNVHWYQQKPGQAPVLVVYDDSDRPSGIPERFSGSNSGNTATLTISRVEAGDEADYYCQVWDSSSDHPVFGGGTKLTVL
B4: 8L13 (antibody, V domains shown)
VH: QVQLLESGGGVVQPGRSLRLSCAASGFTFSNYGMHWVRQAPGKGLEWVAVIWNDGSKKYYAESVKGRFTISRDNSKNTVYLQMNSLRAEDTAVYYCARDEGVQMVFAMPDYGMDVWGQGTTVTVSS
VL: SYELTQPPSVSVSPGQTASITCSGDKLGDKFACWYQQRPGQSPILVIYQDSKRPSGIPERFSGSNSGNTATLTIRGTQAMDEADYYCQAWDSSTAHYVFGTGTKVTVL
B5: 5F1 (antibody, V domains shown)
VH: AVQLVESGGGLAQPGRSLRLSCKVSGFTFSSYEMNWVRQAPGKGLEWIAYIDFTGSTIYYADSVKGRFTISRDTARNSLYLQMNKLRVEDTAVYYCVRDAGRWGTSWYYFDYWGQGTLVTVSS
VL: QSVLTQPPSVSGAPGQRVTISCTGLSSNIGAGYDIHWYQQIPGKAPKLLIYGNNNRPSGVPDRFSGSKSGTSVSLAITGLQAEDEADYYCQSYDSSLNGWVFGGGTRLTVL
notes: human IgG; also called 5F1-biotin
B6: 10C6 (antibody, V domains shown)
VH: AVQLVESGGGLAQPGRSLRLSCKVSGFSFSNFEMNWVRQAPGKGLEWIAYIDFTGSTIYYSDSVKGRFTISRDTARNSLYLQMNKLRVEDTAVYYCVRDAGRWGTSWYYFDYWGQGTLVTVSS
VL: QSVLTQPPSVSGAPGQRVTISCTGLSSNIGAGYDIHWYQQIPGKAPKLLIYGNNNRPSGVPDRFSGSKSGTSVSLAITGLQAEDEADYYCQSYDSSLNGWVFGGGTRLTVL
notes: human IgG; also called 10C6-biotin
B7: 2B11 (antibody, V domains shown)
VH: AVRLVESGGGLAQPGRSLRLSCQVSGFTFGSYEMNWVRQAPGKGLEWIAYIDFTGSTIYYADSVKGRFTISRNTARNSLYLQMNSLRVEDTAVYYCVRDAGRWGTSWYYFDYWGQGTRVTVSP
VL: QSVLTQPPSVSGAPGQRVTISCTGISSNIGAGYDIHWYQQIPGKAPKLLVYGNNNRPSGVPDRFSGSKSGTSVSLAITGLQVEDEADYYCQSYDNSLNGWVFGGGTRLTVL
notes: human IgG; also called 2B11-biotin
B8: 3G16 (antibody, V domains shown)
VH: QSALTQPASVSGSPGESITISCTGTISDVGAYNSVSWYQQHSGTAPELIIYDVTNRPAGVSSRFSGSKSGNTASLTISWLQSEDEAEYYCSSYTTSDTYVFGSGTQVTVL
V domain: RAQLVQSAAEMKNPGASVKVSCEASGYTFTGYYVHWMRQAPGQGLEWMGWINPMTGATKSPQKFQGRVTMTRDTSTTATHIELTRLRSDDSAVFFCARGGPTSTRITGKRHFDLWGRGTLITVAS
B9: 4N10 (antibody, V domains shown)
VH: QVQLVQSGAEVKKPGSSVRVSCKASGGTFSSYVIIWVRQAPGQGLEWMGGVIPIFDTVNYAQKFQGRVTITADESTSTAYMELSSLKSEDTAVYYCARGILAYCGGDCYNTPYGMDVWGQGTTVTVSS
VL: DIQMTQSPSILSASVGDRVTITCRASQSISSWLAWYQQKPGKAPKLLIYKASSLEIGVPSRISGSGSGTEFTLTISSLQPDDFATYYCQQYNSSWTFGQGTKVEIK
B10: 4I22 (antibody, V domains shown)
VH: QVQLVESGGGVVQPGRSLRLSCVASGFTFSSYAMHWVRQAPGKGLEWVAVISYDGDNKFYADSVKGRFRISRDTSKNTLYLEMNSLRAADTAIYYCAREELVGLMPPYYNYGLDVWGQGTTVTVSS
VL: QSVLTQPPSVSAAPGQKVTISCSGSNSNIGNNYVSWYQQLPGRAPKLLIYDNDHRPSGIPDRFSGSKSGTSATLVITGLQTGDEADYYCETWDTSLSAAVVFGGGTKLTVL
B11: 4H9 (antibody, V domains shown)
VH: AVQLVESGGGLVRPGGSLRLSCAASGFTFSSHEMHWVRQAPGKGLEWLSYIDFTGSIIYYADSVRGRFTISRDNTKKSLFLQMNSLRDEDTALYYCARDGGRWGTSWYYFDYWGQGVLVTVSS
VL: QSVLTQPPSVSGAPGQRVTITCTGSSSNFGAGYDGHWYQQLPGTAPKLLIYGSNRPSGVPDRFSGSKSGTSVSLAITGLQADDEADYYCQSYDSSLSAWVFGGGTKLTVL
notes: human IgG; also called 4H9-biotin
B12: 13H11 (antibody, V domains shown)
VH: QVQLVQSGAEVKKPGASVKVSCKASGYTFTNYYIHWVRQAPGQGLEWMGIIHPSSGGTSYAQKFQGRVTMTRDTSTSTVSMDLSSLRSEDTAVYYCGRAFRILGLSDVFVNDWGQGTVVTVSS
VL: DIQMTQSPSSLSASVGDRVTITCRASQGINNYLAWYQQKPGKVPKLLIYAASTLQSGVPSRFSGSGSGTAFTLTILSLQPEDVATYYCQKYNSAPFTFGPGTKVDIK
B13: 11B12 (antibody, V domains shown)
VH: QMQLVQSGPQVKKPGTSVKVSCKASGFTFTSSAMQWVRQARGQRPEWIGWIVLGSGNTNYAQKFQERVTLTRDMSTATAYMELSSLRSEDTAVYYCAADRGRGGYNVYTYWGQGTLVAVSS
VL: EIVMTQSPGTLSLSPGERATLSCRASQTISNTYVAWYQQKPGQAPRLLIYGASSRATGIPDRFSGSGSGTDFTLTIRRLEPEDFAVYYCQQNGQSPWTFGQGTNVEIK

Legend:
[1] = biological target: T1, hCMV gB (expressed in HEK293T cells) (human cytomegalovirus, UniProt P06473 32-906); assay: cell-based or functional assay
[2] = biological target: T1, hCMV gB (expressed in HEK293T cells); assay: cell-based or functional assay; remark: listed apart in the source
[3] = biological target: T1, hCMV gB (expressed in HEK293T cells); assay: cell-based or functional assay; remark: listed apart in the source
[4] = biological target: T1, hCMV gB (expressed in HEK293T cells); assay: competitor: 4H9-biotin; cell staining
[5] = biological target: T1, hCMV gB (expressed in HEK293T cells); assay: competitor: 5F1-biotin; cell staining
[6] = biological target: T1, hCMV gB (expressed in HEK293T cells); assay: competitor: 6B4-biotin; cell staining
[7] = biological target: T1, hCMV gB (expressed in HEK293T cells); assay: competitor: 7H3-biotin; cell staining
[8] = biological target: T1, hCMV gB (expressed in HEK293T cells); assay: competitor: 10C6-biotin; cell staining
[9] = biological target: T1, hCMV gB (expressed in HEK293T cells); assay: competitor: 2B11-biotin; cell staining
[10] = biological target: T2, hCMV UL130 + UL131A (co-expressed in HEK293T cells) (human cytomegalovirus, UniProt P16772 1-214; F5HET4 19-129); assay: cell-based or functional assay
[11] = biological target: T2, hCMV UL130 + UL131A (co-expressed in …); assay: cell-based or functional assay; remark: listed apart in the source
[12] = biological target: T3, hCMV gH (expressed in HEK293T cells) (human cytomegalovirus, UniProt P12824 24-743); assay: cell-based or functional assay
[13] = biological target: T3, hCMV gH (expressed in HEK293T cells); assay: cell-based or functional assay; remark: listed apart in the source

T1 sequence (P06473 32-906 limits assumed): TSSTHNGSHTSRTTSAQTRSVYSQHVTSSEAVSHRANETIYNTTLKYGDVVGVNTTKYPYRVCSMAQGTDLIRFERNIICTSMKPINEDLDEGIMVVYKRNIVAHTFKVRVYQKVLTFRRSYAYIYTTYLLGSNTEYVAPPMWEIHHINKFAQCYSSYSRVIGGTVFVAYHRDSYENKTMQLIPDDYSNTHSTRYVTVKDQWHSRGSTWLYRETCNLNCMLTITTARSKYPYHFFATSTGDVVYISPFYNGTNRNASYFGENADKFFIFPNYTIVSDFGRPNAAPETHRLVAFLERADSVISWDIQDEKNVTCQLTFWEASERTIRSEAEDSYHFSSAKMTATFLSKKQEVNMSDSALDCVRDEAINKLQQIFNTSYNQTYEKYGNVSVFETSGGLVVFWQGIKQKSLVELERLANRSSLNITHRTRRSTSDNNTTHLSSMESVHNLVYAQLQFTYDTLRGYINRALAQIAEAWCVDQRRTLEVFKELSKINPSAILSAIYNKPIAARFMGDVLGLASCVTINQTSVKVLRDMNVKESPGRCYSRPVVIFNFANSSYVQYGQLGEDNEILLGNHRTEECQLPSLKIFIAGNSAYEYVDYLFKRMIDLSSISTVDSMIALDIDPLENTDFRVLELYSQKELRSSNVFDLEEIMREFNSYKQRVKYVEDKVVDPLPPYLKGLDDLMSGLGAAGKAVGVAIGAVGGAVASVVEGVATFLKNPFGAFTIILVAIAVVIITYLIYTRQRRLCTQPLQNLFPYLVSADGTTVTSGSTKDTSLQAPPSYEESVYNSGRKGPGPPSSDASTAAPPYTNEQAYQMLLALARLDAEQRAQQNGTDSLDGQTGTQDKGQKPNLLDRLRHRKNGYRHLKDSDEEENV

Binder	50% Neutralization ARPE [1] [µg/mL]	50% Neutralization MRC-9 [1] [µg/mL]	90% Neutralization ARPE [2] [µg/mL]	90% Neutralization MRC-9 [2] [µg/mL]	Inhibition of binding (%) [4] [%]	Inhibition of binding (%) [5] [%]	Inhibition of binding (%) [6] [%]	Inhibition of binding (%) [7] [%]	Inhibition of binding (%) [8] [%]	Inhibition of binding (%) [9] [%]	50% Neutralization ARPE [10] [µg/mL]	50% Neutralization MRC-9 [10] [µg/mL]	90% Neutralization ARPE [11] [µg/mL]	90% Neutralization MRC-9 [11] [µg/mL]	other results
B1	> 2	≤ 2	0.6	3	0	0	0	100	0	0					50% Neutralization BM-MSC [3]: 2 µg/mL; 50% Neutralization Mo-DC [3]: 0.06 µg/mL
B2											< 0.001	> 2	0.0025	> 10	
B3											< 0.01	≤ 2	0.002	> 10	
B4											< 0.01	> 2	0.001	> 10	
B5	≤ 2	≤ 2	0.1	0.5	100	100	0	0	100	100					50% Neutralization BM-MSC [3]: 0.3 µg/mL; 50% Neutralization Mo-DC [3]: 0.05 µg/mL
B6	≤ 2	≤ 2	0.2	0.75	100	100	0	0	100	100					50% Neutralization BM-MSC [3]: 0.3 µg/mL; 50% Neutralization Mo-DC [3]: 0.02 µg/mL
B7			0.2	0.75	100	100	0	0	100	100					
B8															50% Neutralization ARPE [12]: ≤ 2 µg/mL; 50% Neutralization MRC-9 [12]: ≤ 2 µg/mL; 90% Neutralization ARPE [13]: 0.3 µg/mL; 90% Neutralization MRC-9 [13]: 1 µg/mL
B9											< 0.001	≤ 2	0.02	> 10	
B10											< 0.01	> 2	0.0015	> 10	
B11	≤ 2	≤ 2	0.4	10	100	100	0	0	100	100					
B12															50% Neutralization ARPE [12]: < 0.01 µg/mL; 50% Neutralization MRC-9 [12]: ≤ 2 µg/mL; 90% Neutralization ARPE [13]: 0.4 µg/mL; 90% Neutralization MRC-9 [13]: 1.12 µg/mL
B13															50% Neutralization ARPE [12]: ≤ 2 µg/mL; 50% Neutralization MRC-9 [12]: ≤ 2 µg/mL; 90% Neutralization ARPE [13]: 1.2 µg/mL; 90% Neutralization MRC-9 [13]: 3.5 µg/mL
